Patent publication US20250382344A1, “Soluble GLP1/GIP/NPY2 Receptor Triple Agonists” (Boehringer Ingelheim International GmH, priority 2024, published 2025)
*1 amine or outer side, *2 acyl side, *3 side chain or, on linkers, in order; H or OH if unused. Where no end group is shown, it is not given here. Side-chain parts run from the residue outwards. [ ]: non-standard residue; d: D form. The star is where a group is joined. C18 diacid = O=C(O)CCCCCCCCCCCCCCCCC(=O)*; γGlu = O=C(O)[C@H](CCC(=O)[*:2])N[*:1]; TRX = not defined here; Aib = CC(C)(N)C(=O)O

T1: human GIP receptor (human, UniProt P48546 22-466)
T1 sequence (looked up): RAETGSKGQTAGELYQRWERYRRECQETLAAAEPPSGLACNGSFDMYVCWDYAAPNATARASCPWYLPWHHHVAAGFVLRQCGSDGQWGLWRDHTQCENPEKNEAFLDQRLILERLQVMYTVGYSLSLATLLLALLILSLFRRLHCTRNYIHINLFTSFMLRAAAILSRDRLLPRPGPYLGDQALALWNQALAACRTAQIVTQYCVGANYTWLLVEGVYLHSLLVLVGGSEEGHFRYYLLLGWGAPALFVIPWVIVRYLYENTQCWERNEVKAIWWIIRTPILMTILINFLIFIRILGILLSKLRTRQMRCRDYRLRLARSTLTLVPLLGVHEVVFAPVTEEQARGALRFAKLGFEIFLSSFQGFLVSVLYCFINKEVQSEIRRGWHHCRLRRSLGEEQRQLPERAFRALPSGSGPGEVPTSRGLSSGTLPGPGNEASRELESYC

T2: human neuropeptide Y2 receptor (human, UniProt P49146 1-381)
T2 sequence (looked up): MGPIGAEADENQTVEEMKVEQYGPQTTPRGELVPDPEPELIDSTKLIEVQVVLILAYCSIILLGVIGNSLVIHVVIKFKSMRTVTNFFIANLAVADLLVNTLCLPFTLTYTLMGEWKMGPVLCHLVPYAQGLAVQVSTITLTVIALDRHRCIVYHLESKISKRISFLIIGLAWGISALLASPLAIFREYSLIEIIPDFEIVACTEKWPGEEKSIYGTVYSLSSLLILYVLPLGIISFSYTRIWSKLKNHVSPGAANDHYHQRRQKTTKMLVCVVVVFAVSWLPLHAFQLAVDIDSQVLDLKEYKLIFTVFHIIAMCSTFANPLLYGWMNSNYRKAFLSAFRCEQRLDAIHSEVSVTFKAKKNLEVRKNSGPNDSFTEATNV

T3: human GIP receptor (human, UniProt P48546 22-466)
T3 sequence (looked up): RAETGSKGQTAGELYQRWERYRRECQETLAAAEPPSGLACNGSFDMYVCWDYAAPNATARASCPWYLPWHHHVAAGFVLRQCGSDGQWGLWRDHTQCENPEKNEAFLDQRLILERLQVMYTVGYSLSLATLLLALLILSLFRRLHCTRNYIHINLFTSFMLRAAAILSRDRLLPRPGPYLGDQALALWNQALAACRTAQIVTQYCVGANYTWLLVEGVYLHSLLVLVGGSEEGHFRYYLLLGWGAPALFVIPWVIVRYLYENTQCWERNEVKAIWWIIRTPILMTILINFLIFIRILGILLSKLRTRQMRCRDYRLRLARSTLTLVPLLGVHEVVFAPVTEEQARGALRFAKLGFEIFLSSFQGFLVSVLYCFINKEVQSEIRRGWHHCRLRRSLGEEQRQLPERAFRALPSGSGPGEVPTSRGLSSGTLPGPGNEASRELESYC


Legend:
Assay in all cases: cell-based or functional assay
human GIP receptor [1] = target: T1, human GIP receptor
[2] = target: T2, human neuropeptide Y2 receptor
human GIP receptor [3] = target: T3, human GIP receptor; remark: listed apart in the source

| Binder | EC50, CreLuc reporter, 0.5% hP (human GIP receptor [1]) [nM] | EC50, CreLuc reporter, 0.5% hP [2] [nM] | EC50, CreLuc reporter, 100% hP [2] [nM] | EC50, CreLuc reporter, 0.5% hP (human GIP receptor [3]) [nM] | EC50, CreLuc reporter, 100% hP (human GIP receptor [1]) [nM] | EC50, CreLuc reporter, 100% hP (human GIP receptor [3]) [nM] |
| --- | --- | --- | --- | --- | --- | --- |
| YXEGTFTSDYSIXLEXQAQXAFVRHLINKXTRQRY (Aib at 2, 13, 16, 20, 30; Lys29 epsilon-amino acylated with C18DA-gGlu-gGlu-gGlu-gGlu-gGlu-gGlu-eLys; C-terminal amide) [Compound 5] | – | 28.6 | 89.4 | – | 25 | – |
| YXEGTFTSDYSIXLEEQAQXAFVRHLINKXTRQRY (Aib at 2, 13, 20, 30; Lys29 epsilon-amino acylated with C18DA-gGlu-gGlu-gGlu-gGlu-gGlu; C-terminal amide) [Compound 75] | 0.3 | 191 | 904 | – | 13.2 | – |
| YXEGTFTSDYSIXLDEQAQXAFVRHLINKXTRQRY (Aib at 2, 13, 20, 30; Lys29 epsilon-amino acylated with C18DA-gGlu-gGlu-gGlu-gGlu-gGlu-gGlu-eLys; C-terminal amide) [Compound 40] | 0.3 | 16.2 | 59.4 | – | – | – |
| YXEGTFTSDYSIXLEKQAQXAFVRHLINKLTRQRY (Aib at 2, 13, 20; Lys29 epsilon-amino acylated with C18DA-gGlu-gGlu-gGlu-gGlu-gGlu-AHX; C-terminal amide) [Compound 69] | 0.2 | 7 | 56 | – | 5.5 | – |
| YXEGTFTSDYSIXLEKQAQXEFVRHLINKLTRQRY (Aib at 2, 13, 20; Lys29 epsilon-amino acylated with C18DA-gGlu-gGlu-gGlu-gGlu-gGlu-gGlu-eLys; C-terminal amide) [Compound 83] | 0.4 | 16.8 | 31.7 | – | – | – |
| YXEGTFTSDYSIXLEKQAQXAFIRHLINKXTRQRY (Aib at 2, 20, 30; aMeL at 13; Lys29 epsilon-amino acylated with C18DA-gGlu-gGlu-gGlu-gGlu-gGlu-gGlu-eLys; C-terminal amide) [Compound 76] | – | 7.2 | 24.3 | – | 0.5 | – |
| Y[Aib]EGTFTSDYSI[Aib]LEKQAQ[Aib]EFVRHLINK([γGlu-γGlu-γGlu-γGlu-C18 diacid])[Aib]TRQRY-NH2 [Compound 79] | – | 57.9 | 99.1 | – | 4.7 | – |

The remaining lines, values ahead:

| EC50, CreLuc reporter, 0.5% hP (human GIP receptor [1]) [nM] | EC50, CreLuc reporter, 0.5% hP [2] [nM] | EC50, CreLuc reporter, 100% hP [2] [nM] | EC50, CreLuc reporter, 0.5% hP (human GIP receptor [3]) [nM] | EC50, CreLuc reporter, 100% hP (human GIP receptor [1]) [nM] | EC50, CreLuc reporter, 100% hP (human GIP receptor [3]) [nM] | Binder |
| --- | --- | --- | --- | --- | --- | --- |
| 0.4 | 24.1 | 42.1 | – | – | – | YXEGTFTSDYSIXLEKQAQAAFVRHLINKXTRQRY (Aib at 2, 13, 30; Lys29 epsilon-amino acylated with C18DA-gGlu-gGlu-gGlu-gGlu-gGlu-gGlu-eLys; C-terminal amide) [Compound 61] |
| 0.2 | 9.8 | 99.3 | – | – | – | YXEGTFTSDYSIXLEKQAQXAFVRHLINKITRQRY (Aib at 2, 13, 20; Lys29 epsilon-amino acylated with C18DA-gGlu-gGlu-gGlu-gGlu-gGlu-gGlu-eLys; C-terminal amide) [Compound 66] |
| – | – | – | 0.4 | – | – | YXEGTFTSDYSIXLEKQAQXAFVRHLINKVTRQRY (Aib at 2, 13, 20; Lys29 epsilon-amino: C18DA-gGlu-gGlu-gGlu-gGlu-gGlu-gGlu-eLys; C-terminal amide) [Compound 126] |
| – | – | – | 0.4 | – | 4.8 | YXEGTFTSDYSIXLEKQAQXSFVRHLINKXTRQRY (Aib at 2, 13, 20, 30; Lys29 epsilon-amino: C18DA-gGlu-gGlu-gGlu-gGlu-gGlu-gGlu-eLys; C-terminal amide) [Compound 144] |
| 0.7 | 14.7 | 51 | – | 7.3 | – | YXEGTFTSDYSIXLENQAQXAFVRHLINKXTRQRY (Aib at 2, 13, 20, 30; Lys29 epsilon-amino acylated with C18DA-gGlu-gGlu-gGlu-gGlu-gGlu-gGlu-eLys; C-terminal amide) [Compound 6] |
| 5 | 18.5 | 55 | – | 48.4 | – | YXEGTFTSDYSIXLEKQAYXAFVRHLINKXTRQRY (Aib at 2, 13, 20, 30; Lys29 epsilon-amino acylated with C18DA-gGlu-gGlu-gGlu-gGlu-gGlu-gGlu-eLys; C-terminal amide) [Compound 84] |
| 0.7 | 335 | 522 | – | 23.3 | – | YXEGTFTSDYSIXLEKQAQXAFVRQLINKXTRQRY (Aib at 2, 13, 20, 30; Lys29 epsilon-amino acylated with C18DA-gGlu-gGlu-gGlu-gGlu-gGlu; C-terminal amide) [Compound 50] |
| – | 76.4 | 131 | – | 14.9 | – | Y[Aib]EGTFTSDYSI[Aib]LEKQAQ[Aib]AFVRHLINK([γGlu-γGlu-γGlu-γGlu-γGlu-γGlu-TRX-C18 diacid])[Aib]TRQRY-NH2 (reading uncertain) [Compound 31] |
| 0.5 | 162 | 720 | – | – | – | Y[Aib]EGTFTSDYSI[Aib]LEEEAQ[Aib]EFVRHLINK([γGlu-γGlu-γGlu-γGlu-C18 diacid])[Aib]TRQRY-NH2 [Compound 64] |
